Measurements as given in PMC5409509.

Target: Yeast wild-type Mlh1-Mlh3 (yeast (S. cerevisiae)) (UniProt P38920)

- endonuclease activity on circular dsDNA: ratio of Mlh1-Mlh3 to 2.7 kb plasmid at the optimum of activity (Mlh1-Mlh3 per 2.7 kb plasmid): 100
B1: Yeast wild-type Mlh1-Mlh3 (complex)
chain 1: MSLRIKALDASVVNKIAAGEIIISPVNALKEMMENSIDANATMIDILVKEGGIKVLQITDNGSGINKADLPILCERFTTSKLQKFEDLSQIQTYGFRGEALASISHVARVTVTTKVKEDRCAWRVSYAEGKMLESPKPVAGKDGTTILVEDLFFNIPSRLRALRSHNDEYSKILDVVGRYAIHSKDIGFSCKKFGDSNYSLSVKPSYTVQDRIRTVFNKSVASNLITFHISKVEDLNLESVDGKVCNLNFISKKSISPIFFINNRLVTCDLLRRALNSVYSNYLPKGNRPFIYLGIVIDPAAVDVNVHPTKREVRFLSQDEIIEKIANQLHAELSAIDTSRTFKASSISTNKPESLIPFNDTIESDRNRKSLRQAQVVENSYTTANSQLRKAKRQENKLVRIDASQAKITSFLSSSQQFNFEGSSTKRQLSEPKVTNVSHSQEAEKLTLNESEQPRDANTINDNDLKDQPKKKQKLGDYKVPSIADDEKNALPISKDGYIRVPKERVNVNLTSIKKLREKVDDSIHRELTDIFANLNYVGVVDEERRLAAIQHDLKLFLIDYGSVCYELFYQIGLTDFANFGKINLQSTNVSDDIVLYNLLSEFDELNDDASKEKIISKIWDMSSMLNEYYSIELVNDGLDNDLKSVKLKSLPLLLKGYIPSLVKLPFFIYRLGKEVDWEDEQECLDGILREIALLYIPDMVPKVDTSDASLSEDEKAQFINRKEHISSLLEHVLFPCIKRRFLAPRHILKDVVEIANLPDLYKVFERC
chain 2: MSQHIRKLDSDVSERLKSQACTVSLASAVREIVQNSVDAHATTIDVMIDLPNLSFAVYDDGIGLTRSDLNILATQNYTSKIRKMNDLVTMKTYGYRGDALYSISNVSNLFVCSKKKDYNSAWMRKFPSKSVMLSENTILPIDPFWKICPWSRTKSGTVVIVEDMLYNLPVRRRILKEEPPFKTFNTIKADMLQILVMHPMISLNVQYTDKLRINTEVLFRSKNITEGLTKHQQMSQVLRNVFGAIIPPDMLKKVSLKFNEYQIEGIISKMPVGLKDLQFIYINGRRYADSAFQGYVDSLFQAQDFGEKGMSLLKTKSVGKPYRSHPVFILDVRCPQTIDDLLQDPAKKIVKPSHIRTIEPLIVKTIRSFLTFQGYLTPDKSDSSFEIVNCSQKTATLPDSRIQISKRNQVLNSKMKIARINSYIGKPAVNGCRINNSTINYEKIKNIRIDGQKSRLRNKLSSRPYDSGFTEDYDSIGKTITDFSISRSVLAKYEVINQVDKKFILIRCLDQSIHNCPLLVLVDQHACDERIRLEELFYSLLTEVVTGTFVARDLKDCCIEVDRTEADLFKHYQSEFKKWGIGYETIEGTMETSLLEIKTLPEMLTSKYNGDKDYLKMVLLQHAHDLKDFKKLPMDLSHFENYTSVDKLYWWKYSSCVPTVFHEILNSKACRSAVMFGDELTRQECIILISKLSRCHNPFECAHGRPSMVPIAELK
